The text below walks through data of patent US20260139028A1 (University of California, published 2026).

Assay [1] has as its target integrins on CHO cells (α5β1+ and αvβ3 low), PSGL-1 negative. Description: cell-based or functional assay.
Assay [2] concerns the target T1, soluble integrin αvβ3 (UniProt P06756 31-992; P05106 27-718).
T1 construct: Soluble integrin used at 1 µg/ml; also called soluble αvβ3
Description: ELISA-type, coated proteins, soluble integrin. In general terms: ELISA stands for enzyme-linked immunosorbent assay.

The target in assay [3] is T2, soluble recombinant integrin αIIbβ3 (UniProt P08514 32-993; P05106 27-718).
T2 construct: Bought (AgroBio), used at 1 µg/ml; also called soluble αIIbβ3
Kind of assay: ELISA-type, coated proteins, soluble integrin.

Where a chain is given by its changes, count along the chain named. Names may count otherwise. “And” between values parts separate entries of the source, which are not always exact repeats. Identical values can stand only once.

T1 sequence (P06756 31-992, chain 1 of 2): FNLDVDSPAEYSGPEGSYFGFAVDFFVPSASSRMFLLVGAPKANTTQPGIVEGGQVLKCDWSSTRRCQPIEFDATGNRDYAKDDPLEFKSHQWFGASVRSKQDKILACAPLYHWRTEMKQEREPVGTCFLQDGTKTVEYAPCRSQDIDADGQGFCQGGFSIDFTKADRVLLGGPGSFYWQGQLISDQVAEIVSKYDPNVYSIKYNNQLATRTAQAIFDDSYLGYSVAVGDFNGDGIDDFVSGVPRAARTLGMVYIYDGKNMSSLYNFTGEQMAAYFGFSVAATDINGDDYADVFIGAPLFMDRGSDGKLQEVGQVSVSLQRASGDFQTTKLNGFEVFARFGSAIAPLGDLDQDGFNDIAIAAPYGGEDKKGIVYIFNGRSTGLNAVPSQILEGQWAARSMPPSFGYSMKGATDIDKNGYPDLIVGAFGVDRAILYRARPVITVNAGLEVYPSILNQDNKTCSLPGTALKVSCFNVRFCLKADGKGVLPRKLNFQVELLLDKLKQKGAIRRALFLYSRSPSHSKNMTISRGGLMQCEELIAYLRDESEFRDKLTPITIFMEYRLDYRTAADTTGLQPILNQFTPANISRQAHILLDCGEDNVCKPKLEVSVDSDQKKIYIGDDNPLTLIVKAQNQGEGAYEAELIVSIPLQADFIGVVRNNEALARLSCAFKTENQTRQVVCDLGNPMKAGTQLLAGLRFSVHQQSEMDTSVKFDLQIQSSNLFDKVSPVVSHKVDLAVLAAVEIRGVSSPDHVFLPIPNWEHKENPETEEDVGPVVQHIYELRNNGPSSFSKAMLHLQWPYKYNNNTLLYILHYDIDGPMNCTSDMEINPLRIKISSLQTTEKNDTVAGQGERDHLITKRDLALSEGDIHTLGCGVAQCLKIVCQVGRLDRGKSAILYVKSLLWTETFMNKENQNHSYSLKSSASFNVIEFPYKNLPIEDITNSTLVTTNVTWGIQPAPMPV
T1 sequence (P05106 27-718, chain 2 of 2): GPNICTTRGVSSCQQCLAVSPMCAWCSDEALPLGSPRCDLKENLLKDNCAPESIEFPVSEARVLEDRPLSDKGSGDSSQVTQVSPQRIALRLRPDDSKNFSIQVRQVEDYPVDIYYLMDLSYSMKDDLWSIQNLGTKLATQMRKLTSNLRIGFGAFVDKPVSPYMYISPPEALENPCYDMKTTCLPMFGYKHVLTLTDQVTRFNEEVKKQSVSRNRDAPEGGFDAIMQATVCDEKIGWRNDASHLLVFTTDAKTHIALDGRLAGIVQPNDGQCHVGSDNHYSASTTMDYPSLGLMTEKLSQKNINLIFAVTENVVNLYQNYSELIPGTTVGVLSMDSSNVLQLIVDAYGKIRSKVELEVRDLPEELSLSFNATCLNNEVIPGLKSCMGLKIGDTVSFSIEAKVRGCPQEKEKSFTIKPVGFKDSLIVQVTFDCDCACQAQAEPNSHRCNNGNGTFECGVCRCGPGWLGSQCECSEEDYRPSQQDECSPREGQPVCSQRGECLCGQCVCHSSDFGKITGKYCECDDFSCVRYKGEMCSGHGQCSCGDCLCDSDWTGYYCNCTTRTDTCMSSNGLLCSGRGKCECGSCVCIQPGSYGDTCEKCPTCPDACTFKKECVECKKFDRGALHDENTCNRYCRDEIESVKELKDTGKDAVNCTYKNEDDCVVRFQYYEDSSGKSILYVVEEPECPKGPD

B1: C-type lectin domain of CD62P (P-selectin), wild type, residues 1-117 (ligand, not shown: small tags and cut ends)
chain: WTYHYSTKAYSWNISRKYCQNRYTDLVAIQNKNEIDYLNKVLPYYSSYYWIGIRKNNKTWTWVGTKKALTNEAENWADNEPNNKRNNEDCVEIYIKSPSAPGKWNDEHCLKKKHALC
notes: also called the lectin domain; CD62P lectin domain
Regarding B1, the adhesion of CHO cells to immobilized lectin domain in assay [1] is 70% and > 90%. The “fold binding against the combined lectin and EGF-like domains” value in assay [2] and in assay [3] was around 2 fold each time.

B2: CD62P lectin domain mutant R16E/K17E, P16109 42-158 (ligand, not shown: small tags and cut ends)
chain: B1 chain with R16E, K17E
B2 showed an adhesion of CHO cells to immobilized lectin domain in assay [1] of 60%.
